assay: soluble on expression in E. coli; label from the status in PepcDB or PDB records

Row | Sequence | soluble on expression in E. coli
1 | RNAAHQLYYRPTPDDGYLLAGYPWFDVRARDLFVALPGCTLCVEAPERFERIVNTVIPAMERYMRLHEDDDTIHGLHEPDVGIWAIWAIQQYARRNGLEAAKRFGSFVSEVVSYYLSAQHPTAQIRENGLLYVLGTGFPLSWMDAKLNGKAVIPREGYLVELNALWYNALCFERELNGEKPEIGEIISRIERSFPDTFLNCYNYLFDYVQDGKAQDWSVRPNMLFAISLPYSPLQRDRQLQVLEIITRELLTPKGLRSLSPKSEGYRPYCRGKQEERELAYYNGSVWPWLLGQYTEAYLRLYGNSGVTFLERMLIGMEEELQMHGIGTISELFDGNPPFMGRGAISFAMSVGEILRAKELLNRTESDMHLSVRHMYNYTKWKG | not soluble
2 | MGSDKIHHHHHHVITLWGRLNSHNVKKVAWALIEMDLPHQRRDIGGQFGYTTDYLAKNPNRMVPMIEEGELALWESNAILRYLADRHAPAFRSDDPVVRAQGDKWMDWQFHFADAQRDAFLGCVRHGKDASDPAVATSATAAAGMMAILDEELARRPWLSGDRFGIADIPMGVYAHTYHSLPIERPDLPHLADWYARLRTRPGYASQVMIPLI | not soluble
3 | MAHHHHHHMRCFTPRLSAAGNGVWRGFRQMYEEYALWRDRRDDERYAAVSEEGEEGITLSNRRICANPNACPRSVLLVPADCIVEAFRRERRGGVTADAVMFDLTCCRGSRGEARDNILRFLQAEEKGEKRGEDISEGQCSHADERGRYLIRVNSPEFDSANGFLDMELAALLGERIEGVLLPAVTVNTYSLVEEYIHPSHHLWALFDTPLSVVQASEICRQGHYRYAVMGSRRLAEDLHLPIGGVTYGDTYRGENNSENATPAALLGSLPLLNSSLQVLLAARAFNMNILDDAFEDASDTAGFSRDLHLSRSLGFEGKLVINPAQLASCHAAFAPSAEELSWARGVQQRMARRYATEESAGKLEAAQWRRAACLLERHREAELQGAAPTQRGGGGGVE | not soluble
4 | MGSDKIHHHHHHMDQARTTTVDHPDRETPFLLFAQHGWDDRSYPIQQMAQSIAPQYSQVYAPNLGRFRTWIAIEPLIQSVEAVVLEAIAQYPDRPLRFLGHSMGGLIWLEVLSRHREWWDRTHSLVLVGSPVSGSDVCRLLDPFGRLPSIAKDLGRNRRPLAEAIAAQIPTASIVSDLGDYSDGLVPVNSSEFERATLVTLKDISHARLKSHPQVADAIAQFWKQPSIAPRPRDRAGTLIAQLRSLNLTECNHRNFAKAAVLKSQPDGVKIWRWLNPLRVQHIFVSSPDPATGRDCCRYAAYTGWLDDAALSKFLEKL | not soluble
5 | MSLYDVTEWKHVFKLDPNKDLPDEQLEILCESGTDAVIIGGSDGVTEDNVLRMMSKVRRFLVPCVLEVSAIEAIVPGFDLYFIPSVLNSKNADWIVGMHQKAMKEYGELMSMEEIVAEGYCIANPDCKAAALTEADADLNMDDIVAYARVSELLQLPIFYLEYSGVLGDIEAVKKTKAVLETSTLFYGGGIKDAETAKQYAEHADVIVVGNAVYEDFDRALKTVAAVKGEEGGSHHHHHH | soluble
6 | MGHHHHHHSHMNIPLEELQRNLQFHAFISYSGHDSFWVKNELLPNLEKEGMQICLHERNFVPGKSIVENIITCIEKSYKSIFVLSPNFVQSEWCHYELYFAHHNLFHEGSNSLILILLEPIPQYSIPSSYHKLKSLMARRTYLEWPKEKSKRGLFWANLRAAINIKLTEQAK | soluble
7 | MKEAMNNHKKLGILLANLGTPQAPTSQAVKAFLSQFLHDQRVVDMSRWLWCPLLHGIILPTRSPKVAKLYQSIWMDEGSPLMVYSRRQRDKLAELSQRPVELGMTYGEPSLLEGVRKLQQQGVEQIVVLPLYPQYSATTTAAVFDGLAKALRQLPVVPELHFIRDYHDHPLYIQALAKSVRASWQQHGQGDLLLCSYHGIPKRYAQNGDIYPEHCLKTTELLAQALGLPQDKVMMTYQSQFGKEEWLQPYTDKTMEALPRQGIKKLDVICPAFSVDCLETLEEIAEQNQEIFLHSGGEAFHYVPCLNDSQSHIELMAALVKVDC | not soluble
8 | MSLSHKSKKLLLVDDDQTVLKLMTEVLTDFGHCVTSVPSARHALNHFTSAGQAFDLLITDICMPGMNGVELIKAVRAHNGTLPIIAISGFSEPEDQNEIAHYDARMLTKPVDFQTLKQTIDALEGHHHHHH | not soluble
9 | MSLSRYEKIISARWIITVETDGEVLENHAIAIRDGKIAAIIPAADAAGLEADERLELPDHVLMPGLINLHGHSAMSLLRGLADDKALMDWLTNYIWPTEGKHVHDDFVFDGSLLAMGEMIRGGTTTINDMYFYNAAVARAGLASGMRTFVGCSILEFPTNYASNADDYIAKGMAERSQFLGEDLLTFTLAPHAPYTVSDDTFRKVVTLAEQEDMLIHCHIHETADEVNNSVKEHGQRPLARLQRLGLLSPRLVAAHMVHLNDAEVELAARHGLSTAHNPASNMKLASGISPVSKLMDAGVAVGIGTDGAASNNKLDMLAETRLAALLAKVGTLDPTSVPAAAAIRMATLNGARALGIADKVGSVKVGKQADLIALDLAQLETAPAFDPISHVVYAAGREQVSHVWVKGRALMRERKLTTLDESDLKARAGDWRNRILAKEGHHHHHH | soluble
10 | MGSDKIHHHHHHMKKLVVRADDIGYSEGVTLGIISSYKNGIVTSAGIMVNMPFSRQAIEMVKNDDVCFGLHVNLVIGEPCCKEHIKIKNLLDEGGKFVSSKIRRTQLLTGKEVFNYEEVYEEVCAQIETYKLYMSKLPEYIDIHGIEEDVSISAMCDAAKEYGIPSCPYYLDSCISMPSKYPQNDFYKLNKSFVKLFEEKYINLDKDITLMVTHPGFIDYSLIKSSSLIQERVYEHAMLCDKEVKMWLKRNNIELVDFKDIFKSNNYI | not soluble
11 | GHHHHHHAIAENLYFQSEDPVFTFGLIADVQYADIEDGENYLRTRRRYYRGSADLLRDAVLQWRRERVQCVVQLGDIIDGHNRRRDASDRALDTVMAELDACSVDVHHVWGNHEFYNFSRPSLLSSRLNSAQRTGTDTGSDLIGDDIYAYEFSPAPNFRFVLLDAYDLSVIGREEESEKHTHSWRILTQHNHNLQDLNLPPVSVGLEQRFVKFNGGFSEQQLQWLDAVLTLSDHKQERVLIFSHLPVHPCAADPICLAWNHEAVLSVLRSHQSVLCFIAGHDHDGGRCTDSSGAQHITLEGVIETPPHSHAFATAYLYEDRMVMKGRGRVEDLTITYS | soluble
12 | MGSDKIHHHHHHMENLGDRLEVVAELSLAPGNITLTPDGRLFLSLHQFYQPEMQVAELTQDGLIPFPPQSGNAIITFDTVLGIKSDGNGIVWMLDNGNQSKSVPKLVAWDTLNNQLSRVIYLPPPITLSNSFVNDLAVDLIHNFVYISDPAPDDKAALIRVDLQTGLAARVLQGYPGIAPEDIDLVIDGVPVQIGQPDGTVIRPHLGVNGIVLDAENEWLYLSPMHSTSMYRIKSADLSNLQLTDAELGSKIERYSEKPICDGISIDKDHNIYVGDLAHSAIGVITSADRAYKLLVTDEKLSWTDSFNFGSDGYLYFDCNQLHHSAPLNAGENISAPPYYIFRLKPLAAGIVGR | not soluble
13 | MSLNNPYIKMIGAHGTALGDIYGHVTLENFDNTDIYGTEINLVGQINIGETDFNLYGQVFDKSMPVWGETNTLLGLSWDKNYDNTYVQLAFAAHIVNATYKAFDSNFDEQGFNGGYAYLNISHDLSLFDQDFKFVWWQEFYFGRNEQYLELAGDMEDFGFNGQLRANWIINNNWSVGVSYRYAENNLGKKGYHDAFFYSVQYKFEGHHHHHH | not soluble
14 | SLSGGKYVDSEGHLYTVPIREQGNIYKPNNKAMADELSEKQVYDAHTKEIDLVNRDPKHLNDDVVKIDFEDVIAEPEGTHSFDGIWKASFTTFTVTKYWFYREG | not soluble
15 | MAIDFHLSASQKGTYQAARSLARNLLMPARQTYLQHPPNSPLRFQSTQPTYAAAVSAGILKGQISPAHGGTGGTLIESAILVEECYSVEPSAALTIFATGLGLTPINLAAGPQHAEFLAPFLSGEGSPLASLVFSEPGGVANALEKGAPGFQTTARLEGDEWVINGEKMWATNCAGWDFKGCDLACVVCRDATTPLEEGQDPENKVMIILVTRADLDRNGEGSFEVLRHVATPGHTSVSGPHVRYTNVRVPTKNVLCPAGQGAKVAFGAFDGSAVLVGAMGVGLMRAAFDAALKFAKEDNRGGAVPLLERQAFADLLSGVKIQTEAARALTWKAAHAMENGPGDYDARRELALAAKVFCSEAAVKACTDVINAVGISAYDLQRPFSDLLNTAVVLPIFDGGNVGIRRRHLQQLMLKPTYDAWSSTYGSFPGSHHHHHH | soluble
16 | MSLQEDPVVMRINGKDIPRSEFEYSYRRHADGNGMKLSPKEYAEFFIQSKLKVEAARAAGLDTTSAFRKQQEAYRTNLLRSYLLDDQEMDGNARILYQKMKENVRGGQVQIQQIYKYLPQTITSRHLQEEQARMDSIYQVIQNQPGVDFARLVDRFSDDKRCRWIESLQTTSEFEEAAFSLAKGEISKPFFTPEGIHILKVIDRKEVPAYEVVSDSLLNRLRRQPLDKGTEAIVEQLKKEYQYIPNMESLEEVLQKGGTERTLFTIDGQAYTGEMFKRFAASHPQAVKRQLNGFIAKSLLDYESQHMERKHPELRYTLQEYAEKCLAEEIVHQKVDLPAVNDRVGLATYFKFHSSDYRWEHPRYKGVVLHCADKKTAKQAKKLLKKVPENEWEDMLRKTFNTSGAEIIKIEQGVFADGDNKYIDKLVFKKGAFDPVVSYPFTIAVGKKQKGPEDYREVIDQVRKDYRNYLNAYWERELRESGKVEINQEVLKTVNNEGHHHHHH | soluble
17 | MTDRRQYAPATQRNRETIAAVLQEYLPSQGSILEIASGTGEHACFFAPLFSPRWWITSDPDPLCRESIMAWRDHQALANFQSPLDLDVNDQVWPVEREILREPVTSIVAINLIHISPWESCLGLLTGAERILPEGGILYLYGPYRQKGVPTAPSNEAFDQSLQSRNPAWGLRQLEDVIGEAGKRNLHNQAIIPMPANNLSVIFQKGLEHHHHHH | not soluble
18 | MLAKVLKKRGAVLRGDFVLSSGRRSSVYIDMRRLLGDESSYSVALDLLLEVGGQDLARSSAVIGVATGGLPWAAMLALRLSKPLGYVRPERKGHGTLSQVEGDPPKGRVVVVDDVATTGTSIAKSIEVLRSNGYTVGTALVLVDRGEGAGELLARMGVRLVSVATLKTILEKLGWGGE | soluble
19 | LRLHQWLRNHQPDEPPPDSYGLWGEVFDNIYHLQRRNQRARGRLQAVIDRIQESTAALRDAVIMLDSDGNLEWWNLAAENLLGLKTPQDGGQPVSNLIRHPRFKEYFDQEDYREPLEIPSPINERLRLQFHITLYGNREHLMLVRDVTRVHQLEQMRKDFVANVSHELRTPLTVIAGYLETLLDNVEDVNPRWLRALQQMQQQAGRMQNLLNDLLLLAKLEATDYPGDNKPVAVDALLASIRNDAQALSAGRNHRISLDAAPAVQLKGSEAELRSAFSNLVFNAVKYTPDEGEIRIRWWADEQGAHLSVQDTGIGVDPKHLPRLTERFYRVDSSRASNTGGTGLGLAIVKHVLIRHRARLEISSVPGKGSTFTCHFAPAQVAEAERKAPK | not soluble
20 | MYCTIDDLLGQIDKSKLIELTNDRADPAVDENGQEIIHEGNANSAIEAATAVVNTYIAMRYPVPLSPVPKIVSKLTADIAIYNLFTRHYNDEDNVFVRRYRDAIRLLEKIAADEVKLTANESGIRTYARRKVFGEDFRRMYD | not soluble
21 | MAGDPMKSSQYPAQDLKRRVLAWAVKLKVNPRAVRVQDMHRKWGSCSSTGTITLASDLLDQEQRFQDYVIVHELLHLRFATHGRMFKALMSAYVPGWRAMEGMGQHRICRKYRSTRSTVLEHHHHHH | not soluble
22 | MAQFLEKATSALSEAKESVTSTAESVTASLTDAEKTVNQTARSTLTDAETTVAASVETVKTEAAAAPDKASGVSTQAKDAVDKAFSRGIEGAKSLLQTFEAKSSDISSKLVGGVTNLVSGASSSTVANRDLPVSTDNQPLLASGEKTPWWKNCCGVLDLFKKDT | soluble
